Laboratory results: patent publication US20060110769A1, “Regulation of novel human prolyl 4-hydroxylases” (Bayer Aktiengesellschaft, priority 2001, published 2006)

Experiments:
Type in all cases: cell-based, human
[1] = tested on: HIF-1 alpha; assay: Cotransfection reporter assay (HIF-RE2-luc) with HIF-1 alpha in HEK/293 cells; details: for reduction of transactivation activity of cotransfected HIF-1 alpha on hypoxia responsive reporter gene construct: HEK/293, wild type HIF-1 alpha, equal amounts of each plasmid transfected; for sensitivity of double mutant HIF-1 alpha (P402/577G) activity to cotransfected hydroxylase: HEK/293, double mutant, constitutively active; for sensitivity of HIF-1 alpha P402G mutant to cotransfected hydroxylase, versus wild type HIF-1 alpha: HEK/293, glycine substituted for P402; for sensitivity of HIF-1 alpha P577 mutant to cotransfected hydroxylase: HEK/293, mutation of P577
Protocol: (§1) HIF-prolyl hydroxylase activity of PH-2 was examined in a cellular co-transfection assay in HEK/293 cells. In a typical experiment, cells were seeded at a density of 2×10^4 cells per well in 96-well tissue culture plates (Greiner, Germany) and grown in DMEM F12 tissue culture medium (Gibco) supplemented with 10% fetal calf serum (PAA) and antibiotics for 24 hours at 37° C. in a humidified tissue culture incubator (Heraeus, Germany) in a 5% CO2 atmosphere. Plasmid DNA was introduced into the HEK/293 cells by use of Lipofectamin reagent (Gibco) according to the manufacturer's instructions.
(§2) The following expression plasmids were used in transfection experiments. pCDNA3 cloning vectors were obtained from Invitrogen: • HIF-1alpha pcDNA3 containing the coding sequence of mouse hypoxia inducible factor-1 alpha (Gene bank accession number: NM_010431). • HIF-1 alpha P402G pcDNA3 containing the coding sequence of mouse hypoxia inducible factor-1 alpha in which the HIF proline hydroxylase sensitive proline residue at position 402 was replaced with glycine by site-directed mutagenesis using QuickChange™ XL Site-Directed Mutagenesis Kit, Stratagene. • HIF-1 alpha P577G pcDNA3 containing the coding sequence of mouse hypoxia inducible factor-1alpha in which the HIF proline hydroxylase sensitive proline residue at position 577 (the ortholog of P564 of human HIF) was replaced with glycine by site-directed mutagenesis using QuickChange™ XL Site-Directed Mutagenesis Kit, Stratagene. • HIF-1 alpha P402/577G pcDNA3 containing the coding sequence of mouse hypoxia inducible factor-1alpha in which both HIF proline hydroxylase sensitive proline residues at positions 402 and 577 were replaced with glycine by site-directed mutagenesis using QuickChange™ XL Site-Directed Mutagenesis Kit, Stratagene. • HIF-2 alpha pcDNA3 containing the coding sequence of mouse hypoxia inducible factor-2 alpha (Gene bank accession number: AF045160). • HIF-RE2-luc, HIF reporter construct (constructed in pGL3, Promega) consisting of a minimal promoter containing a tandem of hypoxia responsible elements (FIG. 5, bold underlined) and the CMV promoter TATA box (FIG. 5, underlined) upstream of the firefly luciferase gene. • pRLTK (Promega) containing the coding sequence of renilla luciferase, used as transfection standard. • PH-alpha(I) pcDNA3 containing the coding sequence of human prolyl 4-hydroxylase alpha (I) (Gene bank accession number: U14620). • EGLN3 pcDNA3 containing the coding sequence of a recently identified human HIF-prolyl-hydroxylase (Epstein et al., Cell 107, 43-54, 2001; Bruick & McKnight, Science 294, 1337-40, 2001; gene bank accession number: XM—052824). • PH-2 pcDNA3 containing the coding sequence from SEQ ID NO:3.
(§3) In a typical experiment, 30 ng of HIF-RE2 pGL3 luciferase reporter plasmid and 10 ng pRLTK internal standard were cotransfected with prolyl-4 hydroxylase and HIF pCDNA3 expression plasmids. The amount of transfected pCDNA3 plasmids was kept constant at 60 ng by filling up with pCDNA3 empty cloning vector. Twenty-four hours later, luciferase activity was measured in a lumibox equipped with a Hamamatsu camera (Hamamatsu Photonics, Japan) using after lysis of cells in luciferase buffer.
A luciferase reporter construct in which a tandem of hypoxia responsive elements linked to a minimal promoter drive firefly luciferase was cotransfected with HIF-1 alpha and HIF-2 alpha, respectively, and with the candidate HIF prolyl 4-hydroxylases EGLN3 and PH-2, respectively.

[2] = tested on: HIF-2 alpha; assay: Cotransfection reporter assay (HIF-RE2-luc) with HIF-2 alpha in HEK/293 cells; details: for activity of HIF-2 alpha on reporter: HEK/293, hydroxylase and HIF-2 alpha cotransfected in a ratio 10:1; for activity on HIF-2 alpha compared with activity on HIF-1 alpha: HEK/293 cotransfection reporter assay
Protocol: as §1, §2, §3

[3] = tested on: HIF-2 alpha protein; assay: Western blot analysis of HIF-2 alpha protein in cotransfected HEK/293 cells; details: HEK/293, HIF-2 alpha specific polyclonal antibody
Protocol: as §1, with “instructions. […]” for “instructions.”

[4] = HEK/293, equal amounts of each plasmid transfected

B1: PH-alpha(I): human collagen prolyl 4-hydroxylase alpha (I) (Gene bank accession number U14620), expressed from pcDNA3 (protein)
chain: HPGFFTSIGQMTDLIHTEKDLVTSLKDYIKAEEDKLEQIKKWAEKLDRLTSTATKDPEGFVGHPVNAFKLMKRLNTEWSELENLVLKDMSDGFISNLTIQRQYFPNDEDQVGAAKALLRLQDTYNLDTDTISKGNLPGVKHKSFLTAEDCFELGKVAYTEADYYHTELWMEQALRQLDEGEISTIDKVSVLDYLSYAVYQQGDLDKALLLTKKLLELDPEHQRANGNLKYFEYIMAKEKDVNKSASDDQSDQKTTPKKKGVAVDYLPERQKYEMLCRGEGIKMTPRRQKKLFCRYHDGNRNPKFILAPAKQEDEWDKPRIIRFHDIISDAEIEIVKDLAKPRLSRATVHDPETGKLTTAQYRVSKSAWLSGYENPVVSRINMRIQDLTGLDVSTAEELQVANYGVGGQYEPHFDFARKDEPDAFKELGTGNRIATWLFYMSDVSAGGATVFPEVGASVWPKKGTAVFWYNLFASGEGDYSTRHAACPVLVGNKWVSNKWLHERGQEFRRPCTLSELE
reduction of transactivation activity of cotransfected HIF-1 alpha on hypoxia responsive reporter gene construct [1]: did not reduce

B2: PH-2: novel human prolyl 4-hydroxylase, SEQ ID NO:4; expressed from PH-2 pcDNA3 containing the coding sequence from SEQ ID NO:3 (protein, listed as Homo sapiens)
chain: MAAAAVTGQRPETAAAEEASRPQWAPPDHCQAQAAAGLGDGEDAPVRPLCKPRGICSRAYFLVLMVFVHLYLGNVLALLLFVHYSNGDESSDPGPQHRAQGPGPEPTLGPLTRLEGIKVGHERKVQLVTDRDHFIRTLSLKPLLFEIPGFLTDEECRLIIHLAQMKGLQRSQILPTEEYEEAMSTMQVSQLDLFRLLDQNRDGHLQLREVLAQTRLGNGWWMTPESIQEMYAAIKADPDADGVLSLQEFSNMDLRDFHKYMRSHKAESSELVRNSHHTWLYQGEGAHHIMRAIRQRVLRLTRLSPEIVELSEPLQVVRYGEGGHYHAHVDSGPVYPETICSHTKLVANESVPFETSCRYMTVLFYLNNVTGGGETVFPVADNRTYDEMSLIQDDVDLRDTRRHCDKGNLRVKPQQGTAVFWYNYLPDGQGWVGDVDDYSLHGGCLVTRGTKWIANNWINVDPSRARQALFQQEMARLAREGGTDSQPEWALDRAYRDARVEL
sensitivity of double mutant HIF-1 alpha (P402/577G) activity to cotransfected hydroxylase [1]: almost completely resistant | sensitivity of HIF-1 alpha P402G mutant to cotransfected hydroxylase, versus wild type HIF-1 alpha [1]: equally sensitive | sensitivity of HIF-1 alpha P577 mutant to cotransfected hydroxylase [1]: less sensitive | reduction of transactivation activity of cotransfected HIF-1 alpha on hypoxia responsive reporter gene construct [1]: ~80% | activity of HIF-2 alpha on the hypoxia responsive reporter gene construct [2, 4]: reduced | activity on HIF-2 alpha relative to EGLN3 [2, 4]: by a factor two less active | activity of HIF-2 alpha on reporter [2]: completely abolished | activity on HIF-2 alpha compared with activity on HIF-1 alpha [2]: less active | HIF-2 alpha protein by Western blot [3]: disappearance

B3: EGLN3: recently identified human HIF-prolyl-hydroxylase (gene bank accession number XM—052824), expressed from EGLN3 pcDNA3 (protein)
chain: MPLGHIMRLDLEKIALEYIVPCLHEVGFCYLDNFLGEVVGDCVLERVKQLHCTGALRDGQLAGPRAGVSKRHLRGDQITWIGGNEEGCEAISFLLSLIDRLVLYCGSRLGKYYVKERSKAMVACYPGNGTGYVRHVDNPNGDGRCITCIYYLNKNWDAKLHGGILRIFPEGKSFIADVEPIFDRLLFFWSDRRNPHEVQPSYATRYAMTVWYFDAEERAEAKKKFRNLTRKTESALTED
sensitivity of double mutant HIF-1 alpha (P402/577G) activity to cotransfected hydroxylase [1]: almost completely resistant | sensitivity of HIF-1 alpha P402G mutant to cotransfected hydroxylase, versus wild type HIF-1 alpha [1]: equally sensitive | sensitivity of HIF-1 alpha P577 mutant to cotransfected hydroxylase [1]: less sensitive | reduction of transactivation activity of cotransfected HIF-1 alpha on hypoxia responsive reporter gene construct [1]: about 90% | activity of HIF-2 alpha on the hypoxia responsive reporter gene construct [2, 4]: reduced | activity of HIF-2 alpha on reporter [2]: completely abolished | activity on HIF-2 alpha compared with activity on HIF-1 alpha [2]: less active | HIF-2 alpha protein by Western blot [3]: disappearance
